Test results taken from patent US20150051149A1 (published 2015).

T1: human PXR-GST (Invitrogen) (human, UniProt O75469 111-434, limits assumed)
T1 construct: Captured on an anti-GST antibody chip; also called GST-PXR; GST-tagged PXR; not shown: GST tag
T1 sequence (looked up): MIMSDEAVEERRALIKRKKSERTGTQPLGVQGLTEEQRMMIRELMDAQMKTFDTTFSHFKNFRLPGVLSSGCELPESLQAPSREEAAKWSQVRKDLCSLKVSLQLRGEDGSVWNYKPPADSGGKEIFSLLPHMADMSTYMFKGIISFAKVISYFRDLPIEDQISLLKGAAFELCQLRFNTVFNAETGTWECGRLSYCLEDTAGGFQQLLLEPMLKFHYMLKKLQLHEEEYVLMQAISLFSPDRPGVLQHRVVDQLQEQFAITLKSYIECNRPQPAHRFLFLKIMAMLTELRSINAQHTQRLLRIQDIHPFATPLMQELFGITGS


Molecular target: T1, human PXR-GST (Invitrogen)
Assay: SPR, Biacore T100, human PXR-GST captured on anti-GST antibody

Row | kon [M⁻¹ s⁻¹] | Binder
1 | 162000 | Adnectin-2 (designed binder) MASTSGVSDVPRDLEVVAATPTSLLISWDAPAVTVNNYRITYQPLLQGSSIQHFDVPGSKSTATISGLKPGVGYQITVYASTYTHSKAYYSLPISIYYRTEGSGSHHHHHH
2 | 16200 | Adnectin-3 (designed binder) MASTSGVSDVPRDLEVVAATPTSLLISWDAPAVPVSKYVIYYWPGALISSMQAFKVPGSKSTATISGLKPGVLYSIVVDALTGDGQGSYVWDPITITYRTEGSGSHHHHHH
